The source of these data is PMC10499536 (Nature, 2022).

This series deals with the molecule itself. Put plainly: cryo-EM structure.

B1: truncated mouse mIgM heavy chain lacking the two Fab arms (of IgM BCRΔFab; vector pMS-RL2b) (receptor)
heavy: AEAAAKEAAAKEAAAKAAVAEMNPNVNVFVPPRDGFSGPAPRKSKLICEATNFTPKPITVSWLKDGKLVESGFTTDPVTIENKGSTPQTYKVISTLTISEIDWLNLNVYTCRVDHRGLTFLKNVSSTCAASPSTDILTFTIPPSFADIFLSKSANLTCLVSNLATYETLNISWASQSGEPLETKIKIMESHPNGTFSAKGVASVCVEDWNNRKEFVCTVTHRDLPSPQKKFISKPNEVHKHPPAVYLLPPAREQLNLRESATVTCLVKGFSPADISVQWLQRGQLLPQEKYVTSAPMPEPGAPGFYFTHSILTVTEEEWNSGETYTCVVGHEALPHLVTERTVDKSTEGEVNAEEEGFENLWTTASTFIVLFLLSLFYSTTVTLFKVK
Consider B1, for which the binding result is “binds”.
